Laboratory results taken from PMC4703215, “Structural Based Analyses of the JC Virus T-Antigen F258L Mutant Provides Evidence for DNA Dependent Conformational Changes in the C-Termini of Polyomavirus Origin Binding Domains”.

Experiments:
JCV T-ag OBD wt [1] = biological target: T1, JCV T-ag OBD wt (JC virus (JCV), UniProt P03072 132-261); assay: ITC; ITC: 10 mM Na phosphate pH 7.0, 50 mM NaCl, 5 mM DTT; anisotropy: 20 mM Hepes pH 7.4, 50 mM NaCl, 0.01% NP40, 0.1 mM DTT, 15 nM probe; temperature not stated; conditions: protein: recombinant; tags: expressed from pGEX1λT (GST vector)
T1 sequence: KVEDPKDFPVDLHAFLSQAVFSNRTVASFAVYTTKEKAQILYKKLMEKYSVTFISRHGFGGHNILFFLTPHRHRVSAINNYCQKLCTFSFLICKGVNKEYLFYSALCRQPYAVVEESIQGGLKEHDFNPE

JCV T-ag OBD wt [2] = biological target: T1, JCV T-ag OBD wt; assay: fluorescence anisotropy; ITC: 10 mM Na phosphate pH 7.0, 50 mM NaCl, 5 mM DTT; anisotropy: 20 mM Hepes pH 7.4, 50 mM NaCl, 0.01% NP40, 0.1 mM DTT, 15 nM probe; temperature not stated; conditions: protein: recombinant; tags: expressed from pGEX1λT (GST vector); label: 5' fluorescein (six-carbon linker) on one strand

B1: Site II duplex, four GAGGC pentanucleotides (dsDNA)
DNA 1: TACAGGAGGCCGAGGCCGCCTCCGCCTCCAAGC
DNA 2: GCTTGGAGGCGGAGGCGGCCTCGGCCTCCTGTA
Kd (JCV T-ag OBD wt [1]): 172 nM

B2: TBS probe, single GAGGC (dsDNA)
DNA 1: CCGAGGCCATTCTGAGAATTGAGC
DNA 2: GCTCAATTCTCAGAATGGCCTCGG
Kd (JCV T-ag OBD wt [2]): 93 ± 21 nM
